Experimental data from patent US20100221248A1.

Key:
[1] = molecular target: human FcγRIIIA, 158F 176V allele, soluble (human) (UniProt P08637); assay: SPR (Biacore T100), steady state, MBP-Fn3 immobilized, soluble FcR injected
[2] = molecular target: human FcγRIIIA, 158F 176F allele, soluble (human) (UniProt P08637); assay: as above

Kd [1]: 3.9 µM | Kd [2]: 4.9 µM
B1: MBP-IIIA537 (designed binder, not shown: large carriers)
chain: LGENLYFQSVSDVPRDLEVVVATPTSLLINWDLPFSDSYRITYGETGGNSPVQGFTVPGTESIATISGLKPGVDYTITVYAVASSGSNSYPISINYRTEIDKPSQ
